One may read the Kd as the equilibrium constant for the complex coming apart.

Assay [1] deals with full length spike (S) protein of SARS-CoV-2 on pseudovirus (SARS-CoV-2, UniProt P0DTC2 14-1273). As to the kind of experiment: cell-based or functional assay.
The target of assay [2] is spike (S) protein of live SARS-CoV-2 (SARS-CoV-2, UniProt P0DTC2 14-1273). As to the kind of experiment: cell-based or functional assay.
The target in assay [3] is spike protein of live SARS-CoV-2 (SARS-CoV-2, UniProt P0DTC2 14-1273). As to the kind of experiment: cell-based or functional assay.
The target of assay [4] is T1, full length spike (S) protein of SARS-CoV-2 (SARS-CoV-2, UniProt P0DTC2 14-1273). As to the kind of experiment: cell-based or functional assay.
Assay [5] concerns the target spike protein on live SARS-CoV-2 (SARS-CoV-2, UniProt P0DTC2 14-1273). As to the kind of experiment: cell-based or functional assay.
The target in assay [6] is T1, full length spike (S) protein of …. As to the kind of experiment: cell-based or functional assay. The source holds these as a separate data set.
The target of assay [7] is recombinant RBD of the spike protein of SARS-CoV-2 (residues Arg319-Phe541) (SARS-CoV-2, UniProt P0DTC2 319-541). Put plainly: SPR, RBD on CM5 chip. A general note: SPR reads the build-up and loss of mass on a sensor chip optically.

B1: P2C-1C10 (antibody, V domains shown)
VH: QVQLVQSGAEVKKPGSSVKVSCKASGGTFSSYAIIWVRQAPGQGLEWMGGIIPIFGTANYAQKFQGRVTITADESTSTAYMELSSLRSEDTAVYYCARVVTGYYFDYWGQGTLVTVSS
VL: EIVLTQSPATLSLSPGERATLSCRASQSVSSYLAWYQQKPGQAPRLLIYDASNRATGIPARFSGSGSGTDFTLTISSLEPEDFAVYYCQQRSNWPSFGQGTKLEIKR
B1: in assay [1], the “Pseudovirus IC50” value turned out to be 2.62 µg/mL and the “Pseudovirus IC80” value was 4.64 µg/mL. Further, in assay [2], the “Live virus IC50” value was found to be 11.1 µg/mL and the “Live virus IC80” value is greater than 50 µg/mL.

B2: P5A-1D1 (antibody, V domains shown)
VH: EVQLVESGGGLIQPGGSLRLSCAASGLTVSSNYMSWVRQAPGKGLEWVSVIYSGGSTYYADSVKGRFTISRDNSKNTLYLQMNSLRAEDTAVYYCARDLYYYGMDVWGQGTTVTVST
VL: DIQLTQSPSFLSASVGDRVTITCRASQGISSYLAWYQQKPGKAPKLLIYAASTLQSGVPSRFSGSGSGTDFTLTISSLQPEDFATYYCQQLNSYPTFGQGTRLEIKR
B2: in assay [3], the “Live virus IC50” value came out at 0.0189 µg/mL.

B3: P5A-2E1 (antibody, human IgG1, lambda, V domains shown)
VH: EVQLVQSGAEVKKPGESLKISCKGSGYSFTSYWIGWVRQMPGKGLEWMGIIYPGDSDTRYSPSFQGQVTISADKSISTAYLQWSSLKASDTAMYYCAQTSVTRNWFDPWGQGTLVTVSS
VL: SYVLTQPPSVSVAPGKTARITCGGNNIGSKSVHWYQQKPGQAPVLVIYYDSDRPSGIPERFSGSNSGNTATLTISRVEAGDEADYYCQVWDSSSDHVVFGGGTKLTVLG
For B3, the “IC50, pseudovirus neutralization” value in assay [4] came to 6.97 µg/mL.

B4: P5A-1C8 (antibody, human IgG1, kappa, V domains shown)
VH: QVQLVQSGAEVKKPGASVKVSCKASGYTFTSYYMHWVRQAPGQGLEWMGIINPSGGSTSYAQKFQGRVTMTRDTSTSTVYMELSSLRSEDTAVYYCARSARDYYDSSGYYYRAEYFQHWGQGTLVTVSS
VL: DIQMTQSPSSLSASVGDRVTITCQASQDISNYLNWYQQKPGKAPKLLIYDASNLETGVPSRFSGSGSGTDFTFTISSLQPEDIATYYCQQYDNLPSITFGQGTRLEIKR
With B4, in assay [4], the “IC50, pseudovirus neutralization” value is 0.434 µg/mL.

B5: P2C-1A3 (antibody, V domains shown)
VH: QVQLVESGGGLVKPGGSLRLSCAASGFTFSDYYMSWIRQAPGKGLEWVSYISSSGSTIYYADSVKGRFTISRDNAKNSLYLQMNSLRAEDTAVYYCARDFSHQQLVPSWGQGTLVTVSS
VL: not shown
For the molecule B5, the “IC50, live SARS-CoV-2 focus reduction neutralization test (FRNT)” value in assay [5] was 0.28 µg/mL.

B6: P2C-1A3 (antibody, V domains shown)
VH: B5 VH
VL: not shown
On to B6, for which, in assay [1], the “Pseudovirus IC50” value worked out at 0.62 µg/mL and the “Pseudovirus IC80” value was 5.94 µg/mL. In assay [2], the “Live virus IC50” value amounted to 0.283 µg/mL and the “Live virus IC80” value stood at 1.46 µg/mL.

B7: P5A-1D2 (antibody, human IgG1, lambda, V domains shown)
VH: EVQLVESGGGLIQPGGSLRLSCAASGFIVSSNYMSWVRQAPGKGLEWVSIIYSGGSTYYADSVKGRFTISRDNSNNTLYLQMNSLRAEDTAVYYCARALQVGATSDYFDYWGQGTLVTVSS
VL: QSVLTQPPSVSGAPGQRVTISCTGSSSNIGAGYDVHWYQQLPGTAPKLLIYGNSNRPSGVPDRFSGSKSGTSASLAITGLQAEDETDYYCQSCDSSLSVVVFGGGTKLTVLG
In the case of B7, the “IC50, pseudovirus neutralization” value in assay [4] was 0.035 µg/mL.

B8: P1A-1C10 (antibody, V domains shown)
VH: QVQLVQSGAEVKNPGSSVKVSCKAGGGTSSFYDINWVRQAPGQGLEWIGKIIPRLDIADYAQKSQGRVTITADKSTSTVYLELSSLKSDDTAVYFCARGRPGSEWAYGPFDLWGQGTLVTVSS
VL: DIQMTQSPSTLSASVGDRVTITCRASQSSRAWLAWYQQKPGKAPKLLISKASSLESGVPSRFSGSGYGTEFTLTISSLQPDDSATYYCHQYNSSPFTFGPGTKVQIKR
notes: human IgG1, kappa
With B8, in assay [6], the “IC50, Pesudovirus neutralization” value worked out at 21.5 µg/mL. In addition, the Kd in assay [7] stood at 8.48 nM.

Values taken from patent US20210292392A1 (TSB THERAPEUTICS BEIJING, published 2021).
